US20200249231

Columns and labels:
Z-[GGGDYALQGGGG] = target: T1, Z-[GGGDYALQGGGG]
T1 chain: GGGDYALQGGGG

[1] = target: T2, WYALQ (5-mer on peptide array)
T2 chain: WYALQ

[2] = target: T3, VRQRQ (5-mer on peptide array)
T3 chain: VRQRQ

[3] = target: T4, PRYRQ (5-mer on peptide array)
T4 chain: PRYRQ

[4] = target: T5, RYSQR (5-mer on peptide array)
T5 chain: RYSQR

[5] = target: T6, QRQTR (5-mer on peptide array)
T6 chain: QRQTR

[6] = target: T7, EWALQ (5-mer on peptide array)
T7 chain: EWALQ

[7] = target: T8, WQRQR (5-mer on peptide array)
T8 chain: WQRQR

[8] = target: T9, VRYRQ (5-mer on peptide array)
T9 chain: VRYRQ

[9] = target: T10, YRQRA (5-mer on peptide array)
T10 chain: YRQRA

[10] = target: T11, LRYRQ (5-mer on peptide array)
T11 chain: LRYRQ

[11] = target: T12, DYFLQ (5-mer on peptide array)
T12 chain: DYFLQ

[12] = target: T13, RYRQR (5-mer on peptide array)
T13 chain: RYRQR

[13] = target: T14, AYRQR (5-mer on peptide array)
T14 chain: AYRQR

[14] = target: T15, DWVAQ (5-mer on peptide array)
T15 chain: DWVAQ

[15] = target: T16, YRQTR (5-mer on peptide array)
T16 chain: YRQTR

[16] = target: T17, QRQRQ (5-mer on peptide array)
T17 chain: QRQRQ

[17] = target: T18, YKYRQ (5-mer on peptide array)
T18 chain: YKYRQ

[18] = target: T19, EWIAQ (5-mer on peptide array)
T19 chain: EWIAQ

[19] = target: T20, DYALQ (5-mer on peptide array)
T20 chain: DYALQ

[20] = target: T21, EYWLQ (5-mer on peptide array)
T21 chain: EYWLQ

[21] = target: T22, EYFLQ (5-mer on peptide array)
T22 chain: EYFLQ

[22] = target: T23, DWYLQ (5-mer on peptide array)
T23 chain: DWYLQ

[23] = target: T24, YRYRQ (5-mer on peptide array)
T24 chain: YRYRQ

[24] = target: T25, RYTQR (5-mer on peptide array)
T25 chain: RYTQR

[25] = target: T26, FRQRG (5-mer on peptide array)
T26 chain: FRQRG

[26] = target: T27, QYRQR (5-mer on peptide array)
T27 chain: QYRQR

[27] = target: T28, EYALQ (5-mer on peptide array)
T28 chain: EYALQ

[28] = target: T29, YRQSR (5-mer on peptide array)
T29 chain: YRQSR

[29] = target: T30, FRQRQ (5-mer on peptide array)
T30 chain: FRQRQ

[30] = target: T31, EWVAQ (5-mer on peptide array)
T31 chain: EWVAQ

[31] = target: T32, EYVLQ (5-mer on peptide array)
T32 chain: EYVLQ

[32] = target: T33, DYWLQ (5-mer on peptide array)
T33 chain: DYWLQ

[33] = target: T34, EYVAQ (5-mer on peptide array)
T34 chain: EYVAQ

[34] = target: T35, DYVAQ (5-mer on peptide array)
T35 chain: DYVAQ

[35] = target: T36, DWALQ (5-mer on peptide array)
T36 chain: DWALQ

[36] = target: T37, RFSQR (5-mer on peptide array)
T37 chain: RFSQR

[37] = target: T38, RQRQR (5-mer on peptide array)
T38 chain: RQRQR

[38] = target: T39, YQRQR (5-mer on peptide array)
T39 chain: YQRQR

Z-[GGGYRYRQGGGG] = target: T40, Z-[GGGYRYRQGGGG]
T40 chain: GGGYRYRQGGGG

B1: Streptomyces mobaraensis microbial transglutaminase (protein)
chain: DSDDRVTPPAEPLDRMPDPYRPSYGRAETVVNNYIRKWQQVYSHRDGRKQQMTEEQREWLSYGCVGVTWVNSGQYPTNRLAFASFDEDRFKNELKNGRPRSGETRAEFEGRVAKESFDEEKGFQRAREVASVMNRALENAHDESAYLDNLKKELANGNDALRNEDARSPFYSALRNTPSFKERNGGNHDPSRMKAVIYSKHFWSGQDRSSSADKRKYGDPDAFRPAPGTGLVDMSRDRNIPRSPTSPGEGFVNFDYGWFGAQTEADADKTVWTHGNHYHAPNGSLGAMHVYESKFRNWSEGYSDFDRGAYVITFIPKSWNTAPDKVKQGWP
**Q.** How did the KM (Z-[GGGDYALQGGGG]) turn out when B1 was run?
**A.** The KM was 847 µM.

**Q.** What about the Vmax (Z-[GGGDYALQGGGG]) of the same protein?
**A.** The Vmax was 36.7 pmol/s.

**Q.** What about the kcat (Z-[GGGDYALQGGGG]) of the same protein?
**A.** The kcat was 1.39 s⁻¹.

**Q.** What about the kcat/KM (Z-[GGGDYALQGGGG]) of the same protein?
**A.** Its kcat/KM is 1640 M⁻¹ s⁻¹.

**Q.** And the “5-mer peptide array, incorporation of N-(biotinyl)cadaverine” value (from here on “5-mer peptide array, incorporation”) [1]?
**A.** Its value is “The 16 glutamine-donor substrates identified with MTG”.

**Q.** And the “5-mer peptide array signal with MTG” value [2]?
**A.** Its value is “found in the mid-field of the signal distribution on the array performed with MTG”.

**Q.** And the “5-mer peptide array signal with MTG” value [3]?
**A.** The value was “found in the mid-field of the signal distribution on the array performed with MTG”.

**Q.** And the “5-mer peptide array signal with MTG” value [4]?
**A.** Its value is “found in the mid-field of the signal distribution on the array performed with MTG”.

**Q.** What about the “5-mer peptide array signal with MTG” value [5] of the same protein?
**A.** Its value is “found in the mid-field of the signal distribution on the array performed with MTG”.

**Q.** And the “5-mer peptide array, incorporation” value [6]?
**A.** Its value is “The 16 glutamine-donor substrates identified with MTG”.

**Q.** And the “5-mer peptide array signal with MTG” value [7]?
**A.** The value was “found in the mid-field of the signal distribution on the array performed with MTG”.

**Q.** What about the “5-mer peptide array signal with MTG” value [8] of the same protein?
**A.** The value was “found in the mid-field of the signal distribution on the array performed with MTG”.

**Q.** What about the “5-mer peptide array signal with MTG” value [9] of the same protein?
**A.** The value was “found in the mid-field of the signal distribution on the array performed with MTG”.

**Q.** And the “5-mer peptide array signal with MTG” value [10]?
**A.** The value was “found in the mid-field of the signal distribution on the array performed with MTG”.

**Q.** And the “5-mer peptide array, incorporation” value [11]?
**A.** The value was “The 16 glutamine-donor substrates identified with MTG”.

**Q.** And the “5-mer peptide array signal with MTG” value [12]?
**A.** Its value is “found in the mid-field of the signal distribution on the array performed with MTG”.

**Q.** What about the “5-mer peptide array signal with MTG” value [13] of the same protein?
**A.** The value was “found in the mid-field of the signal distribution on the array performed with MTG”.

**Q.** And the “5-mer peptide array, incorporation” value [14]?
**A.** Its value is “The 16 glutamine-donor substrates identified with MTG”.

**Q.** What about the “5-mer peptide array signal with MTG” value [15] of the same protein?
**A.** Its value is “found in the mid-field of the signal distribution on the array performed with MTG”.

**Q.** What about the “5-mer peptide array signal with MTG” value [16] of the same protein?
**A.** The value was “found in the mid-field of the signal distribution on the array performed with MTG”.

**Q.** What about the “5-mer peptide array signal with MTG” value [17] of the same protein?
**A.** Its value is “found in the mid-field of the signal distribution on the array performed with MTG”.

**Q.** And the “5-mer peptide array, incorporation” value [18]?
**A.** Its value is “The 16 glutamine-donor substrates identified with MTG”.

**Q.** And the “5-mer peptide array, incorporation” value [19]?
**A.** The value was “The 16 glutamine-donor substrates identified with MTG”.

**Q.** And the “5-mer peptide array, incorporation” value [20]?
**A.** The value was “The 16 glutamine-donor substrates identified with MTG”.

**Q.** What about the “5-mer peptide array, incorporation” value [21] of the same protein?
**A.** The value was “The 16 glutamine-donor substrates identified with MTG”.

**Q.** What about the “5-mer peptide array, incorporation” value [22] of the same protein?
**A.** The value was “The 16 glutamine-donor substrates identified with MTG”.

**Q.** And the “5-mer peptide array signal with MTG” value [23]?
**A.** Its value is “found in the mid-field of the signal distribution on the array performed with MTG”.

**Q.** What about the “5-mer peptide array signal with MTG” value [24] of the same protein?
**A.** The value was “found in the mid-field of the signal distribution on the array performed with MTG”.

**Q.** What about the “5-mer peptide array signal with MTG” value [25] of the same protein?
**A.** Its value is “found in the mid-field of the signal distribution on the array performed with MTG”.

**Q.** What about the “5-mer peptide array signal with MTG” value [26] of the same protein?
**A.** The value was “found in the mid-field of the signal distribution on the array performed with MTG”.

**Q.** And the “5-mer peptide array, incorporation” value [27]?
**A.** Its value is “The 16 glutamine-donor substrates identified with MTG”.

**Q.** And the “5-mer peptide array signal with MTG” value [28]?
**A.** The value was “found in the mid-field of the signal distribution on the array performed with MTG”.

**Q.** What about the “5-mer peptide array signal with MTG” value [29] of the same protein?
**A.** Its value is “found in the mid-field of the signal distribution on the array performed with MTG”.

**Q.** What about the “5-mer peptide array, incorporation” value [30] of the same protein?
**A.** The value was “The 16 glutamine-donor substrates identified with MTG”.

**Q.** And the “5-mer peptide array, incorporation” value [31]?
**A.** The value was “The 16 glutamine-donor substrates identified with MTG”.

**Q.** And the “5-mer peptide array, incorporation” value [32]?
**A.** Its value is “The 16 glutamine-donor substrates identified with MTG”.

**Q.** What about the “5-mer peptide array, incorporation” value [33] of the same protein?
**A.** Its value is “The 16 glutamine-donor substrates identified with MTG”.

**Q.** What about the “5-mer peptide array, incorporation” value [34] of the same protein?
**A.** The value was “The 16 glutamine-donor substrates identified with MTG”.

**Q.** What about the “5-mer peptide array, incorporation” value [35] of the same protein?
**A.** The value was “The 16 glutamine-donor substrates identified with MTG”.

**Q.** And the “5-mer peptide array signal with MTG” value [36]?
**A.** The value was “found in the mid-field of the signal distribution on the array performed with MTG”.

**Q.** And the “5-mer peptide array signal with MTG” value [37]?
**A.** The value was “found in the mid-field of the signal distribution on the array performed with MTG”.

**Q.** What about the “5-mer peptide array signal with MTG” value [38] of the same protein?
**A.** Its value is “found in the mid-field of the signal distribution on the array performed with MTG”.

**Q.** What about the KM (Z-[GGGYRYRQGGGG]) of the same protein?
**A.** Its KM is 644 µM.

**Q.** What about the Vmax (Z-[GGGYRYRQGGGG]) of the same protein?
**A.** Its Vmax is 21.5 pmol/s.

**Q.** What about the kcat (Z-[GGGYRYRQGGGG]) of the same protein?
**A.** Its kcat is 0.93 s⁻¹.

**Q.** What about the kcat/KM (Z-[GGGYRYRQGGGG]) of the same protein?
**A.** The kcat/KM was 1440 M⁻¹ s⁻¹.
